T1: FcγRIIb extracellular domain with C-terminal His tag (human, UniProt P31994 43-217)
T1 construct: extracellular domain; also called FcgRIIb; 2b; not shown: His tag at the C terminus
T1 sequence (looked up): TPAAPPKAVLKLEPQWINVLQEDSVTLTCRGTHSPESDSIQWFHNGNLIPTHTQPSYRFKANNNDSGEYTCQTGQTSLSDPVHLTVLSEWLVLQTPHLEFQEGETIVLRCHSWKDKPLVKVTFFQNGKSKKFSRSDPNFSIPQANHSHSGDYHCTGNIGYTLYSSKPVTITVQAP


Experiments:
[1] = biological target: T2, FcγRIIIa extracellular domain with C-terminal His tag (human, UniProt P08637 17-208); assay: SPR (Biacore), captured antibody, FcγR as analyte; relative to GpH7-A5/GpH7-B3/GpL16-k0 = 100
T2 construct: extracellular domain; also called FcgRIIIa; 3a; not shown: His tag at the C terminus
Protocol: (§1) Analysis of interaction between objective antibody and the FcγR was carried out using Biacore T100 (GE Healthcare). HBS-EP+ (GE Healthcare) was used as the running buffer, and the measurement temperature was set to 25° C. Chips produced by immobilizing the antigen peptide by the amine coupling method to a Series S Sencor Chip CM5 (GE Healthcare), or alternatively, chips produced by allowing preliminarily biotinylated antigen peptides to interact with and immobilize onto a Series S Sensor Chip SA (certified) (GE Healthcare) were used. Antibodies of interest were captured onto an antigen peptide-immobilized chip, and allowed to interact to each FcγR diluted with running buffer. To regenerate and repeatedly use the chip, the antibodies captured on the chip were washed off by reacting 10 mM glycine-HCl, pH 1.5.
(§2) The FcγR-binding activity of each antibody was assessed primarily using as an indicator the FcγR-binding activity and dissociation constant for FcγR.

[2] = biological target: T1, FcγRIIb extracellular domain with …; assay: as above
Protocol: as §1, §2

T2 sequence (P08637 17-208): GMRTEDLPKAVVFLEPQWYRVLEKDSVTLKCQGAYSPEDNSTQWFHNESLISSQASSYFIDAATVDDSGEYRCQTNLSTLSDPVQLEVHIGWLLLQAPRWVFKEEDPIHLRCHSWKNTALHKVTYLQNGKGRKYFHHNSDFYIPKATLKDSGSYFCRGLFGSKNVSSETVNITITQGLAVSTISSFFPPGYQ

He/Con_3a (IIIa binding) [1] | He/Con_2b (IIb binding) [2] | Binder
12.2 % of HeCon Ab | 51.4 % of HeCon Ab | GpH7-A5/GpH7-B3 variant P238_12R/GpL16-k0 (heterodimerized antibody, He Ab) (antibody, human IgG1, kappa, Anti-glypican-3 IgG1; the alteration is in the GpH7-B3 chain only; also called P238R) heavy 1: not shown heavy 2: not shown light: DIVMTQSPLSLPVTPGEPASISCQASESLVHSNRNTYLHWYLQKPGQSPQLLIYKVSNRFSGVPDRFSGSGSGTDFTLKISRVEAEDVGVYYCSQNTHVPPTFGQGTKVEIERTVAAPSVFIFPPSDEQLKSGTASVVCLLNNFYPREAKVQWKVDNALQSGNSQESVTEQDSKDSTYSLSSTLTLSKADYEKHKVYACEVTHQGLSSPVTKSFNRGEC
53.8 % of HeCon Ab | 105 % of HeCon Ab | GpH7-A5/GpH7-B3 variant S267_01G/GpL16-k0 (heterodimerized antibody, He Ab) (antibody, human IgG1, kappa, Anti-glypican-3 IgG1; the alteration is in the GpH7-B3 chain only; also called S267G) heavy 1: not shown heavy 2: not shown light: DIVMTQSPLSLPVTPGEPASISCQASESLVHSNRNTYLHWYLQKPGQSPQLLIYKVSNRFSGVPDRFSGSGSGTDFTLKISRVEAEDVGVYYCSQNTHVPPTFGQGTKVEIERTVAAPSVFIFPPSDEQLKSGTASVVCLLNNFYPREAKVQWKVDNALQSGNSQESVTEQDSKDSTYSLSSTLTLSKADYEKHKVYACEVTHQGLSSPVTKSFNRGEC
55.8 % of HeCon Ab | 110 % of HeCon Ab | GpH7-A5/GpH7-B3 variant P238_19Q/GpL16-k0 (heterodimerized antibody, He Ab) (antibody, human IgG1, kappa, Anti-glypican-3 IgG1; the alteration is in the GpH7-B3 chain only; also called P238Q) heavy 1: not shown heavy 2: not shown light: DIVMTQSPLSLPVTPGEPASISCQASESLVHSNRNTYLHWYLQKPGQSPQLLIYKVSNRFSGVPDRFSGSGSGTDFTLKISRVEAEDVGVYYCSQNTHVPPTFGQGTKVEIERTVAAPSVFIFPPSDEQLKSGTASVVCLLNNFYPREAKVQWKVDNALQSGNSQESVTEQDSKDSTYSLSSTLTLSKADYEKHKVYACEVTHQGLSSPVTKSFNRGEC
19.5 % of HeCon Ab | 109 % of HeCon Ab | GpH7-A5/GpH7-B3 variant S267_08L/GpL16-k0 (heterodimerized antibody, He Ab) (antibody, human IgG1, kappa, Anti-glypican-3 IgG1; the alteration is in the GpH7-B3 chain only; also called S267L) heavy 1: not shown heavy 2: not shown light: DIVMTQSPLSLPVTPGEPASISCQASESLVHSNRNTYLHWYLQKPGQSPQLLIYKVSNRFSGVPDRFSGSGSGTDFTLKISRVEAEDVGVYYCSQNTHVPPTFGQGTKVEIERTVAAPSVFIFPPSDEQLKSGTASVVCLLNNFYPREAKVQWKVDNALQSGNSQESVTEQDSKDSTYSLSSTLTLSKADYEKHKVYACEVTHQGLSSPVTKSFNRGEC
30.7 % of HeCon Ab | 115 % of HeCon Ab | GpH7-A5/GpH7-B3 variant P238_16H/GpL16-k0 (heterodimerized antibody, He Ab) (antibody, human IgG1, kappa, Anti-glypican-3 IgG1; the alteration is in the GpH7-B3 chain only; also called P238H) heavy 1: not shown heavy 2: not shown light: DIVMTQSPLSLPVTPGEPASISCQASESLVHSNRNTYLHWYLQKPGQSPQLLIYKVSNRFSGVPDRFSGSGSGTDFTLKISRVEAEDVGVYYCSQNTHVPPTFGQGTKVEIERTVAAPSVFIFPPSDEQLKSGTASVVCLLNNFYPREAKVQWKVDNALQSGNSQESVTEQDSKDSTYSLSSTLTLSKADYEKHKVYACEVTHQGLSSPVTKSFNRGEC
64.5 % of HeCon Ab | 218 % of HeCon Ab | GpH7-A5/GpH7-B3 variant P238_15Y/GpL16-k0 (heterodimerized antibody, He Ab) (antibody, human IgG1, kappa, Anti-glypican-3 IgG1; the alteration is in the GpH7-B3 chain only; also called P238Y) heavy 1: not shown heavy 2: not shown light: DIVMTQSPLSLPVTPGEPASISCQASESLVHSNRNTYLHWYLQKPGQSPQLLIYKVSNRFSGVPDRFSGSGSGTDFTLKISRVEAEDVGVYYCSQNTHVPPTFGQGTKVEIERTVAAPSVFIFPPSDEQLKSGTASVVCLLNNFYPREAKVQWKVDNALQSGNSQESVTEQDSKDSTYSLSSTLTLSKADYEKHKVYACEVTHQGLSSPVTKSFNRGEC
79.3 % of HeCon Ab | 107 % of HeCon Ab | GpH7-A5/GpH7-B3 variant S239_07I/GpL16-k0 (heterodimerized antibody, He Ab) (antibody, human IgG1, kappa, Anti-glypican-3 IgG1; the alteration is in the GpH7-B3 chain only; also called S239I) heavy 1: not shown heavy 2: not shown light: DIVMTQSPLSLPVTPGEPASISCQASESLVHSNRNTYLHWYLQKPGQSPQLLIYKVSNRFSGVPDRFSGSGSGTDFTLKISRVEAEDVGVYYCSQNTHVPPTFGQGTKVEIERTVAAPSVFIFPPSDEQLKSGTASVVCLLNNFYPREAKVQWKVDNALQSGNSQESVTEQDSKDSTYSLSSTLTLSKADYEKHKVYACEVTHQGLSSPVTKSFNRGEC
95.3 % of HeCon Ab | 140 % of HeCon Ab | GpH7-A5/GpH7-B3 variant S239_08L/GpL16-k0 (heterodimerized antibody, He Ab) (antibody, human IgG1, kappa, Anti-glypican-3 IgG1; the alteration is in the GpH7-B3 chain only; also called S239L) heavy 1: not shown heavy 2: not shown light: DIVMTQSPLSLPVTPGEPASISCQASESLVHSNRNTYLHWYLQKPGQSPQLLIYKVSNRFSGVPDRFSGSGSGTDFTLKISRVEAEDVGVYYCSQNTHVPPTFGQGTKVEIERTVAAPSVFIFPPSDEQLKSGTASVVCLLNNFYPREAKVQWKVDNALQSGNSQESVTEQDSKDSTYSLSSTLTLSKADYEKHKVYACEVTHQGLSSPVTKSFNRGEC
30.8 % of HeCon Ab | 192 % of HeCon Ab | GpH7-A5/GpH7-B3 variant S267_03V/GpL16-k0 (heterodimerized antibody, He Ab) (antibody, human IgG1, kappa, Anti-glypican-3 IgG1; the alteration is in the GpH7-B3 chain only; also called S267V) heavy 1: not shown heavy 2: not shown light: DIVMTQSPLSLPVTPGEPASISCQASESLVHSNRNTYLHWYLQKPGQSPQLLIYKVSNRFSGVPDRFSGSGSGTDFTLKISRVEAEDVGVYYCSQNTHVPPTFGQGTKVEIERTVAAPSVFIFPPSDEQLKSGTASVVCLLNNFYPREAKVQWKVDNALQSGNSQESVTEQDSKDSTYSLSSTLTLSKADYEKHKVYACEVTHQGLSSPVTKSFNRGEC

Source: patent US20180155451A1 (published 2018)
